Test results from patent US20200024330A1.

What was measured:
Assay in all cases: cell-based or functional assay
[1] = target: HIV-1 Env of isolate 98CN009 (HIV-1)
[2] = target: HIV-1 Env of isolate CAAN.A2 (HIV-1)
[3] = target: HIV-1 Env of isolate CMU02 (CRF01_AE), on pseudovirus (HIV-1)
[4] = target: HIV-1 Env of isolate MGRM-AE-003 (CRF01_AE), on pseudovirus (HIV-1)
[5] = target: HIV-1 Env of isolate MGRM-C-019 (HIV-1)
[6] = target: HIV-1 Env of isolate MGRM-C-024 (HIV-1)
[7] = target: HIV-1 Env of isolate MGRM-Chronic-B-004 (HIV-1)
[8] = target: HIV-1 Env of isolate MGRM-D-005 (HIV-1)
[9] = target: HIV-1 Env of isolate MGRM-D-016 (HIV-1)
[10] = target: HIV-1 Env of isolate MGRM-F1-004 (subtype F), on pseudovirus (HIV-1)
[11] = target: HIV-1 Env of isolate MGRM-F1-006 (subtype F), on pseudovirus (HIV-1)
[12] = target: HIV-1 Env of isolate MGRM-F1-016 (subtype F), on pseudovirus (HIV-1)
[13] = target: HIV-1 Env of isolate NL43 (HIV-1)
[14] = target: HIV-1 Env of isolate TRO.11 (HIV-1)
[15] = target: HIV-1 JR-CSF Env N188A (HIV-1 (isolate JR-CSF)) (UniProt P20871)
[16] = target: HIV-1 Env of isolate MGRM-G-019 (subtype G) (HIV-1)
[17] = target: HIV-1 JR-CSF Env D113A (HIV-1 (isolate JR-CSF)) (UniProt P20871)
[18] = target: HIV-1 APV_13 Env (pseudovirus) (HIV-1)
[19] = target: HIV-1 Env of isolate 92UG024 (subtype D) (HIV-1)
[20] = target: HIV-1 Env of isolate MG RM-D-022 (subtype D) (HIV-1)
[21] = target: HIV-1 Env of isolate MG RM-D-029 (subtype D) (HIV-1)
[22] = target: HIV-1 Env of isolate MGRM-F1-006 (subtype F) (HIV-1)
[23] = target: HIV-1 MGRM-C-028 envelope glycoprotein (Env) on pseudovirus (HIV-1)
[24] = target: HIV-1 93UG077 envelope glycoprotein (Env) (HIV-1)
[25] = target: HIV-1 94UG103 envelope glycoprotein (Env) (HIV-1)

5329_C19 (PGT-136) (antibody), sequence (VH): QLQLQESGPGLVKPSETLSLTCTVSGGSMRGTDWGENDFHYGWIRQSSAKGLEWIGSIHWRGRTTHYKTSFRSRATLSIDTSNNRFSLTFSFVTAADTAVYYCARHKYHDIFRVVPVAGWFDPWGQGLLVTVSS
5329_C19 (PGT-136) (antibody), sequence (VL): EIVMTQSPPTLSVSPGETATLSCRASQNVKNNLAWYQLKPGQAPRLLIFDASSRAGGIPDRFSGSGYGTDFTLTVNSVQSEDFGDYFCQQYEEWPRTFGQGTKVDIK
PGT-143 (4980_N08) (antibody), sequence (VH): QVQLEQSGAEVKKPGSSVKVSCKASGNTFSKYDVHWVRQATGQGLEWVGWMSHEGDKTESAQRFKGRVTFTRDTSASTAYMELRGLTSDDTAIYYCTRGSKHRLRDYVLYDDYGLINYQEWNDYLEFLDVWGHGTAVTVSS
PGT-143 (4980_N08) (antibody), sequence (VL): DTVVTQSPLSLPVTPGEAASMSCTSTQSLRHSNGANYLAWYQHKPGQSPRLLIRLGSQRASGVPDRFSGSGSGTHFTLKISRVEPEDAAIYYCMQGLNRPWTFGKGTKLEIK
PGT-144 (4970_K22) (antibody), sequence (VH): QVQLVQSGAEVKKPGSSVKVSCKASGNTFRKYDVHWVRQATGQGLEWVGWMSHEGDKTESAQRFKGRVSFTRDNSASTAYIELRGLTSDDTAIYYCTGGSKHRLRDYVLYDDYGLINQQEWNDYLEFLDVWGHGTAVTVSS
PGT-144 (4970_K22) (antibody), sequence (VL): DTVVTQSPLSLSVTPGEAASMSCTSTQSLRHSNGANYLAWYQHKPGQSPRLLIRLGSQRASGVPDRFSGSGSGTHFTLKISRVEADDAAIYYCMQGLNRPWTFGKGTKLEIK

| Substance | IC50 [1] | IC50 [2] | IC50, single-round pseudovirus neutralization [3] | IC50, single-round pseudovirus neutralization [4] | IC50 [5] | IC50 [6] | IC50 [7] | IC50 [8] | IC50 [9] | IC50, pseudovirus neutralization [10] | IC50, pseudovirus neutralization [11] | IC50, pseudovirus neutralization [12] | IC50 [13] | IC50 [14] | Fold IC50 increase relative to wild-type [15] | neutralization IC50 [16] | Fold IC50 increase relative to wild-type [17] | further results |
| --- | --- | --- | --- | --- | --- | --- | --- | --- | --- | --- | --- | --- | --- | --- | --- | --- | --- | --- |
| 5136_H01 (PGT-131) (antibody) | 4.05 µg/mL | > 50 µg/mL | > 50 µg/mL | 1.41 µg/mL | 0.021 µg/mL | > 50 µg/mL | 0.04 µg/mL | > 50 µg/mL | > 50 µg/mL | 0.114 µg/mL | > 50 µg/mL | > 50 µg/mL | > 50 µg/mL | 1.91 µg/mL | 0.9 fold | – | – | – |
| PGT-144 (4970_K22) (antibody) | – | – | – | – | – | – | – | – | – | – | – | – | – | – | – | > 50 µg/mL | – | – |
| PGT-143 (4980_N08) (antibody) | – | – | – | – | – | – | – | – | – | – | – | – | – | – | – | 4.77 µg/mL | – | – |
| 5114_A19 (PGT-128) (antibody) | 0.025 µg/mL | 1.48 µg/mL | > 50 µg/mL | 0.18 µg/mL | 0.01 µg/mL | > 50 µg/mL | 0.009 µg/mL | 0.051 µg/mL | > 50 µg/mL | 0.027 µg/mL | 0.763 µg/mL | 1.21 µg/mL | > 50 µg/mL | 0.018 µg/mL | 1.3 fold | – | 0.5 fold | – |
| 5343_B08 (PGT-135) (antibody) | 0.071 µg/mL | 5.15 µg/mL | > 50 µg/mL | > 50 µg/mL | 0.264 µg/mL | > 50 µg/mL | > 50 µg/mL | > 50 µg/mL | > 50 µg/mL | 0.211 µg/mL | > 50 µg/mL | > 50 µg/mL | 8.03 µg/mL | 0.03 µg/mL | 0.4 fold | – | 0.8 fold | – |
| 5123_A06 (PGT-125) (antibody) | – | – | – | – | – | – | – | – | – | – | – | – | – | – | 0.7 fold | – | 1.1 fold | IC50, pseudovirus neutralization [18]: 7 ng/mL; IC50 (µg/mL), pseudovirus neutralization [19]: > 50 µg/mL; IC50 (µg/mL), pseudovirus neutralization [20]: 0.04 µg/mL; IC50 (µg/mL), pseudovirus neutralization [21]: > 50 µg/mL; IC50 (µg/mL), pseudovirus neutralization [22]: 0.035 µg/mL; IC50 (ug/ml), neutralizing activity [23]: 5.78 µg/mL; neutralization IC50 [23]: 5.78 µg/mL; neutralization IC80 [23]: > 10 µg/mL; neutralization IC90 [23]: > 10 µg/mL; neutralization IC95 [23]: > 10 µg/mL |
| PGT-122 (antibody) | – | – | – | – | – | – | – | – | – | – | – | – | – | – | – | – | – | IC50 neutralization [24]: 0.191 µg/mL; IC50 neutralization [25]: 1.46 µg/mL |
| VRC01 (antibody) | – | 0.722 µg/mL | – | – | – | – | 0.055 µg/mL | – | – | – | – | – | – | – | – | 0.06 µg/mL | – | IC50, pseudovirus neutralization [9]: 0.452 µg/mL; neutralization IC50 [13]: 0.1 µg/mL; neutralization IC50 [14]: 0.186 µg/mL |
| 5141_B17 (PGT-126) (antibody) | – | – | – | – | – | – | – | – | – | – | – | – | – | – | 0.8 fold | – | 1.2 fold | IC50, pseudovirus neutralization [18]: 12 ng/mL; IC50 (µg/mL), pseudovirus neutralization [19]: > 50 µg/mL; IC50 (µg/mL), pseudovirus neutralization [20]: > 50 µg/mL; IC50 (µg/mL), pseudovirus neutralization [21]: > 50 µg/mL; IC50 (µg/mL), pseudovirus neutralization [22]: 0.078 µg/mL; IC50 (ug/ml), neutralizing activity [23]: 0.283 µg/mL |
| 5329_C19 (PGT-136) (antibody) | 0.428 µg/mL | > 50 µg/mL | > 50 µg/mL | > 50 µg/mL | 20.1 µg/mL | > 50 µg/mL | > 50 µg/mL | > 50 µg/mL | > 50 µg/mL | > 50 µg/mL | > 50 µg/mL | > 50 µg/mL | 27.7 µg/mL | 0.073 µg/mL | – | – | – | – |
